Experimental data: the nanobody polyreactivity screen of Harvey et al. (2022)

Assay: yeast display, Sf9 membrane polyspecificity reagent, FACS + sequencing; frameworks hold sequencing errors
Procedure, shortened: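 A synthetic nanobody library was expressed on Saccharomyces cerevisiae BJ5465 by galactose induction for 36–48 hours. The library was stained for 1 hour at 4 °C with 10% biotinylated, detergent-solubilized Sf9 membrane reagent and enriched with streptavidin microbeads before FACS. Low and high (top ~1%) gates were set on anti-HA fluorescence for expression and streptavidin fluorescence for reagent binding, and each polyreactivity label reflects the gate of origin.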

For “QVQLVESGGGLVQAGGSLRLSCAASGFIFSSYTMGWYRQAPGKERELVAAITSRGGSTYYADSVKGRLTISRDNAKNTVYLQMNSLKPEDTAVYDWNARRIPYSPYGVHEGYYWGLGTQVTVSS”, which “polyreactivity (PSR sort gate)” value is on record?
The value was “high polyreactivity”.

With “QVQLVESGGGLVQAGGSLRLSCAASGFIFSSYAMGWYRQAPGKERELVAAITRNGGSTYYADSVKGRFTISRDNAKNTVYLQMNSLKPEDTAVYYCAAPRWRGVGRFDYWGQGTQVTVSS” as the sequence, how does the “polyreactivity (PSR sort gate)” value read?
Its value is “high polyreactivity”.

For “IIQEGGSLRLSCAASGRTFSGYAMGWYRQAPGKERELIADITSGGSTYYADSVKGRFTISRDNAKNTVYLQMNSLKPEDTAVYYCAAERQIRSFWSSRTYEFGYWGQGTQVTVSS”, which “polyreactivity (PSR sort gate)” value is on record?
Its value is “low polyreactivity”.

Which “polyreactivity (PSR sort gate)” value does the source give for “QVQLVESGGGLVQAGGSLRLSCAASGRIFRTNAMGWYRQAPGKERELVAAISDSGADTSYADSVKGRFTISRDNAKNTVYLQMNSLKPEDTAVYYCNRGRVYYRYLKDYDYWGQGTQVTVSS” here?
The value was “low polyreactivity”.

For “QVQLVESGGGLVQAGGSLRLSCAASGYIFSGYAMGWYRQAPGKEMELVAAISSNGGSTYYADSVKGRFTISRDNAKNTVYLQMNSLKPEDTAVYYCNRGLAARVGRGDYWGQGTQVTVSS”, which “polyreactivity (PSR sort gate)” value is on record?
The value was “low polyreactivity”.

With “QVQLVESGGGLVQAGGSLRLSCAASGLTFNRNAMGWYRQAPGKERELVARISRGGSTNYADSVKGRFTISRDNAKNTVYLQMNSLKPEDTAVYYCAKRGNPRSVVHYNSWGQGTQVTVSS” as the sequence, how does the “polyreactivity (PSR sort gate)” value read?
The value was “high polyreactivity”.

With “QVQLVESGGGLVQAGGSLRLSCDASGNTYLNALGWYRQAPGKERELVAAISKGGADTYYADSVKGRFTISRDNAKNTVYLQMNSLKPEDTAVYYCAADGYADGWWVEYPWTYDYWGQGTQVTVSS” as the sequence, how does the “polyreactivity (PSR sort gate)” value read?
The value was “low polyreactivity”.

Which “polyreactivity (PSR sort gate)” value does the source give for “QVQLVESGGGLVQAGGSLRLSCAASGYTFEYNAMGWYRQATGKEREFVATITASGDSTYYADSVKGRFTISRDNAKNTVYLQMNSLKPEDTAVYYCATEKRDVYFTAKYDYWGQGTQVTVSS” here?
Its value is “low polyreactivity”.

Which “polyreactivity (PSR sort gate)” value does the source give for “QVQLVESGGGLVQAGGSLRLSCAASGSIFYVYAMGWYRQAPGKERELVASINKYGGSTYYADSVKGRFTISRDNAKNTVYLQMNSLKPADTAVYYCAARTGWPRVGFQYPAHVGFDYWGQGTQVTVSS” here?
The value was “low polyreactivity”.

With “QVQLVESGGGLVQAGGSLRLSCAASGSIFSKNAMGWYRQAPGKERELVAAITGGGSTYYADSVKGRFTISRDNAKNTVYLQMNSLKPEDTAVYYCAAEFYVWGQGTQVTVSS” as the sequence, how does the “polyreactivity (PSR sort gate)” value read?
Its value is “low polyreactivity”.

With “QVQLVESGGGLVQAGGSLRLSCAASGYIFKYYAKGWYRQAPGKERELVAAISWDGTDTYYADSVKGRFTISRDNAKNTVYLQMNSLIPEDTAVYYCNADYDVYGWRNYWGQGTHVTVSS” as the sequence, how does the “polyreactivity (PSR sort gate)” value read?
The value was “low polyreactivity”.

With “QVQLVESGGGLVQAGGSLRLSCAASGSTFSHYTMGWYRQAPGKERELVAAITRSGGSTYYADSVKARFTISRDNAKNNVYLQMTSLNPEDSAVYYCAATRQWNILRYDYWGQGTLVTVSS” as the sequence, how does the “polyreactivity (PSR sort gate)” value read?
The value was “low polyreactivity”.

Which “polyreactivity (PSR sort gate)” value does the source give for “QVQLVESGGGLVQAGGSLRLSCAASGFAFSYYAMGWYRQATGKEREFVASIDWSGGSTYYADSVKGRFTISRDNAKNTVYLQLNSLKPEDTAVYYCAAELDYFPGYDYWGQGTQVTVSS” here?
The value was “low polyreactivity”.

Which “polyreactivity (PSR sort gate)” value does the source give for “QVQLVESGGGLVQAGGSLRLSCAASGLIFKGYVMGWYRQAPGKERELVAAISRRGGSTYYADSVKGRFTISRDNAKNTVYLQMNSLKPEDTAVYYCATEVYDIDGWWGYDYWGQGTQVTVSS” here?
The value was “high polyreactivity”.

With “QVHLVESGGGLVQAVVSLRLSCAASGTTFVSYAMGWYRHATGKERELVAGISWSGTRTYYADSVKGRFTISRDNAMNTVYLQMNSLKPEDSAVYYCNAVYIYNYRTLDYWGQGTQVTVSS” as the sequence, how does the “polyreactivity (PSR sort gate)” value read?
The value was “high polyreactivity”.

For “QVQLVESGGGLVQAGGSLRLSCAPSGFTFRYNTMAWYRQAPGKERELVAAISSSGSSTYYADSVKGRFTISRDNAKNTVYLQMNSLKPVDTAVYYCNAVHRRTRYGYWGQGTQVTVSS”, which “polyreactivity (PSR sort gate)” value is on record?
Its value is “high polyreactivity”.

Which “polyreactivity (PSR sort gate)” value does the source give for “QVQLVESGGALVQAGGSLRLSCAASGSTFLGYTMGWYRQAPGKERELVAAITSSGGRTYYADSVKGRFTISRDNAKYTVYLQMNSLIPEDTAVYYCATREYYPYSTRYSISYDYWGQGTQVTVSS” here?
Its value is “high polyreactivity”.

With “QVQLVESGGGLVQAGGRLRLSCAASGSISQTNAMGWYRKAPGKERELVAAISGSGGSTYADSVKGRFTISRDNAKNTVYLQMNSLKPEDTAVYYCARDRYYTREWYWYRHDHWGQGTQVTVSS” as the sequence, how does the “polyreactivity (PSR sort gate)” value read?
Its value is “low polyreactivity”.

With “QVQLVESGGGLVQAGGSLRLSCAASGSTFAPYVMGCYRQAPGKQRELVAAIRFNGGRTHYADSVKGRFTISRDNAKNTVYLQMNSLKPEDTAVYYCAAEQWRRRNYWGQGTQVTVSS” as the sequence, how does the “polyreactivity (PSR sort gate)” value read?
The value was “high polyreactivity”.

Which “polyreactivity (PSR sort gate)” value does the source give for “QVQLEESGGGLVQAGGSLRLSCAASGRIFYRNAMGWYRQAPGKERELVAAISSSAGSTYYADSVKGRFTISRDHAKNTVYLQMNSLKPEDTAVYYCAAGSGTFVTRYRYDYWGQGTQVTVSS” here?
The value was “high polyreactivity”.

For “QVQLVESGGGLVQAGGSLRLSCAASGRIFGRYAMGRYRRAPGKESEFVAAIDGGGGRTYADSVKGRFTISRDNAKNTVYLQMNSLKPEDTAVYYCNAYVYSIHWGDLYWSEYDYWGQGTQVTVSS”, which “polyreactivity (PSR sort gate)” value is on record?
The value was “high polyreactivity”.

For “QVQLVESGGGLVQAGGSLRLSCAASGSTFWPYAMGWYRQAPGKERELVAAIRVIGGSTYYADSVKGRFTISRDNAKNSVYLQMNSLKPEDTAVYYCNAYRPGGARFYARYRYDYWGQGTQVTVSS”, which “polyreactivity (PSR sort gate)” value is on record?
Its value is “low polyreactivity”.

With “QVQFVESGGGVVQAGGSLRLSCAASGNIPYWYAMGWSRPAPAKERELVAAISSRGNTYYADSVKGRFTISRDNAKNNVYLQMNSLKQEDTAVYYCAAYAGSFYYWGQGTQVTVSS” as the sequence, how does the “polyreactivity (PSR sort gate)” value read?
Its value is “high polyreactivity”.

For “QVQLVESGGGLVQAGGSLRLSCPASGSIIIRNAMGWYRQAPGKERELVAAISIGDGSTYADSVKGRFTISRDNAKNTVYLQMNSLKPEDTAVYYCAADRYGFYLESYYWGQGTQVTVSS”, which “polyreactivity (PSR sort gate)” value is on record?
Its value is “low polyreactivity”.

For “QVQLVESGGGLVQAGGSLRLSCAASGSIFNHYAMGWYRQAPGKERELVAVIPSGGSTNYADSVKGRFTISRDNAKNTVYLQMNSLKPEDTAVYYCAADTYLSAVDYYGWAHDYWGQGTQVTVSS”, which “polyreactivity (PSR sort gate)” value is on record?
Its value is “low polyreactivity”.
